Laboratory results from patent publication US20250346890A1, “LEUKEMIA TREATMENT” (Deutsches Krebsforschungszentrum, priority 2019, published 2025).

How the values were obtained:
ZNRF3 and ALK3^ECD = biological target: T1, ZNRF3 and ALK3^ECD (Homo sapiens, UniProt P36894+Q9ULT6); experiment: In vitro binding assay for ZNRF3 and ALK3^ECD; conditions: plates coated with ZNRF3 Fc, ALK3^ECD-AP preincubated with the protein
T1 construct: purchased R&D systems 7994-RF
Description: (§1) High binding 96-well plates (Greiner M5811) were coated with 2 μg ml^−1 of recombinant human RSPO1 (Peprotech 120-38), RSPO2 (Peprotech 120-43), RSPO3 (Peprotech 120-44) or FGF8b (Peprotech 100-25) recombinant protein reconstituted in bicarbonate coating buffer (50 mM NaHCO3, pH 9.6) overnight at 4° C. Coated wells were washed three times with TBST (TBS, 0.1% Tween-20) and blocked with 5% BSA in TBST for 1 hour at room temperature. 1.5 U ml^−1 of ALK3^ECD-AP or control conditioned medium was incubated overnight at 4° C. Wells were washed six times with TBST and bound AP activity was measured by the chemiluminescent SEAP Reporter Gene Assay kit (Abcam ab 133077). For ZNRF3-ALK3 binding assay, plates were coated with recombinant human ZNRF3 Fc Chimera protein (R&D systems 7994-RF). ALK3^ECD-AP was preincubated with RSPO2-Flag, RSPO2^ΔTSP-Flag conditioned medium or recombinant RSPO protein prior to treatment. Control conditioned medium and vesicles were used as control. […] Statistical analyses show unpaired t-tests.

BMP4 signaling = experiment: BRE reporter assay in HEPG2 cells stimulated by BMP4; type: cell-based, human
Description: BRE luciferase assays were executed using 300,000 ml^−1 of HEPG2 cells in 24-well plates. PGL3-BRE-Luciferase (500 ng ml^−1) and pRL-TK-Renilla plasmids (50 ng ml^−1) were transfected using Lipofectamine 3000. After 24 hours, cells were serum starved 2 hours and stimulated 14-16 hours with 80 ng ml^−1 recombinant human BMP4 protein (R&D systems 314-BP) along with AP tagged RSPO1-4 or flag tagged RSPO1-3 conditioned medium. Luciferase activity was measured with the Dual luciferase reporter assay system (Promega E1960). Firefly luminescence (BRE) was normalized to Renilla. TOPFlash luciferase assays were carried out as previously described (Berger et al. (2017), EMBO Rep 18, 712-725, doi: 10.15252/embr.201643585). […] Statistical analyses were made with the PRISM7 software using unpaired t-test or one-way ANOVA test. Not significant (ns) P>0.05, *P<0.05, **P<0.01, ***P<0.001, and ****P<0.0001.

Smad1 = experiment: Western blot of pSmad1 and tSmad1 in HEPG2 cells; type: cell-based, human
Description: Cultured cells were rinsed with cold PBS and lysed in Triton lysis buffer ([…] Tris-Cl, pH 7.5, 1% Triton X-100, 150 mM NaCl, 1 mM EDTA, 1 mM EGTA, 1 mM β-glycerophosphate, 1 mM Na3 VO4) or RIPA buffer with complete Protease Inhibitor Cocktail (Roche 11697498001). Lysates were mixed with Laemmli buffer with β-mercaptoethanol and boiled at 95° C. for 5 min to prepare SDS-PAGE samples. Western blot images were acquired with SuperSignal West pico ECL (ThermoFisher 34580) or Clarity Western ECL (Biorad 1705061) using LAS-3000 system (FujiFilm). Quantification of blots was done using ImageJ software.

ALK3RD = biological target: T2, ALK3RD (Homo sapiens, UniProt P36894, Q233D); experiment: BRE reporter assay in HEPG2 cells with constitutively active ALK3; type: cell-based; conditions: RSPO treatment
T2 construct: expressed in transfected cells; host or cells: HEPG2
T2 sequence (P36894 24-532 Q233D): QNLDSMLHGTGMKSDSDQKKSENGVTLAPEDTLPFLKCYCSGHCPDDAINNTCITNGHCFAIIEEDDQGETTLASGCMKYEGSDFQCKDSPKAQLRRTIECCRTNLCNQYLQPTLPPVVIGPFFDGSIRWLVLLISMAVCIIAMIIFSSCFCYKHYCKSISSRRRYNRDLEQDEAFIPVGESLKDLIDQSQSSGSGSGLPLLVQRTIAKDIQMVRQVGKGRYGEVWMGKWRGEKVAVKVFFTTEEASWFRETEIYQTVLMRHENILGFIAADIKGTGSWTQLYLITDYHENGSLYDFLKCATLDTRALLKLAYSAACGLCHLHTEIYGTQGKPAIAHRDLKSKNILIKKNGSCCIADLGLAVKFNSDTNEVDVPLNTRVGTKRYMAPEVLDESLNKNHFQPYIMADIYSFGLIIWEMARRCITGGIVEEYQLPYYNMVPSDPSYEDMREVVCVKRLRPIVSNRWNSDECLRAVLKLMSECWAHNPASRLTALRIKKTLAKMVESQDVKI
From the text: Alkaline phosphatase (AP) fusions with RSPOs (human RSPO1^ΔC-AP-pCDNA3, RSPO2^ΔC-AP-pCDNA3, RSPO2^ΔC-AP-pCS2+, RSPO3^ΔC-AP-pCDNA3, murine RSPO4^ΔC-pCDNA3) were generated by replacing the C-terminal domain (ΔC) by AP and used to produce conditioned media. Human RSPO2 wild-type (RSPO2), Furin1 and Furin2 deletion mutants (RSPO2^ΔFU), and TSP1 domain deletion mutant (RSPO2^ΔTSP) are ORFs lacking the C-terminal domain, C-terminally tagged with a Flag-tag and subcloned into pCS2+. R1-TSP^R2, R1-TSP^R2-AP and R1-TSP^R2-Flag plasmids were generated by fusion PCR and cloned in pCS2+. Conditioned media from all RSPO constructs were adjusted to equal concentration by western blot and AP activity measurement, and further validated by WNT reporter assay using HEK293T cells. The extracellular domain of ALK3 (ALK3^ECD) was subcloned in AP-pCS2+ for generating conditioned medium and used in in vitro binding assays. Constitutively active forms of ALK2,3,6 (ALK^QD) were generated by Gln-Asp mutations as described in Fujii et al. (1999), Mol Biol Cell 10, 3801-3813, doi: 10.1091/mbc.10.11.3801. HA-tagged ALK3 was a gift from Dr. D. Koinuma (Goto et al. (2007), J Biol Chem 282, 20603-20611, doi: 10.1074/jbc.M702100200). For Xenopus mRNA microinjection, Xenopus laevis BMP4-pCS2+, myc-tagged RSPO2^ΔC-myc-pCS2+, RSPO2^ΔFU-myc-pCS2+ and RSPO2^ΔTSP-myc-pCS2+ plasmids, DNALK3-pCS2+, membrane-RFP, EYFP-tagged human ALK3-pCS2+ were used for in vitro transcription. Human ZNRF3 and ZNRF3^ΔRING constructs were gifts from Dr. F. Cong (Novartis; Hao et al. (2012), Nature 485, 195-200, doi: 10.1038/nature11019), and ORFs were subcloned in flag-pCS2+ for in vitro transcription.
BRE luciferase assays were executed using 300,000 ml^−1 of HEPG2 cells in 24-well plates. PGL3-BRE-Luciferase (500 ng ml^−1) and pRL-TK-Renilla plasmids (50 ng ml^−1) were transfected using Lipofectamine 3000. […] Luciferase activity was measured with the Dual luciferase reporter assay system (Promega E1960). Firefly luminescence (BRE) was normalized to Renilla. […]

[1] = biological target: T3, extracellular domain of ALK3 (Homo sapiens, UniProt P36894); experiment: In vitro binding assay RSPO / ALK3^ECD (Scatchard plot)
T3 construct: made in house; host or cells: HEK293T (conditioned medium)
T3 sequence (P36894 24-152 limits assumed): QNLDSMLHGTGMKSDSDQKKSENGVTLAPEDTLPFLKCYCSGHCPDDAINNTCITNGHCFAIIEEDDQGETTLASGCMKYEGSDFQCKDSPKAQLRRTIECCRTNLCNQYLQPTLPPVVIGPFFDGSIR
Description: as §1

T1 sequence (Q9ULT6 56-219 limits assumed): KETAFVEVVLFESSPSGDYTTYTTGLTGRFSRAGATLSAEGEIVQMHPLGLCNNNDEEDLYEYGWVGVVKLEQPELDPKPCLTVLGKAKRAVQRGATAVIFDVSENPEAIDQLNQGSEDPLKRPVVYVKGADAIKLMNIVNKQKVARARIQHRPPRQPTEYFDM
T1 sequence (P36894 24-152 limits assumed): as the sequence (P36894 24-152 limits assumed) above

B1: RSPO2: human R-spondin 2 protein (SEQ ID NO:1); conditioned medium or recombinant (Peprotech 120-43) (protein, listed as Homo sapiens)
chain: MQFRLFSFALIILNCMDYSHCQGNRWRRSKRASYVSNPICKGCLSCSKDNGCSRCQQKLFFFLRREGMRQYGECLHSCPSGYYGHRAPDMNRCARCRIENCDSCFSKDFCTKCKVGFYLHRGRCFDECPDGFAPLEETMECVEGCEVGHWSEWGTCSRNNRTCGFKWGLETRTRQIVKKPVKDTILCPTIAESRRCKMTMRHCPGGKRTPKAKEKRNKKKKRKLIERAQEQHSVFLATDRANQ
- ZNRF3 interaction with ALK3 in the presence of the protein (ZNRF3 and ALK3^ECD): interacted with ALK3
- BMP4 signaling (BMP4 signaling; HEPG2 cells, BMP4 stimulation, treatment with RSPO protein): decreased BMP4 signaling
- inhibition of BMP signaling by RSPO2 after knockdown of WNT pathway components (BMP4 signaling; siRNA knockdown of β-catenin, LGR4/5, LRP5/6, DVL1/2/3 and ROR1/2): remained unaffected
- phosphorylation of Smad1 (Smad1): decreased phosphorylation of Smad1
- BMP signaling induced by constitutively active ALK3 (ALK3RD): specifically inhibited
- Kd [1]: ~4.8 nM
